# In publication PMC10939263:
# B1: SRC kinase associated phosphoprotein 1 (SKAP1), wild type, N2-fused [human] / LYN, N1-fused [not stated] (parent)
# chain 1: MQAAALPEEIRWLLEDAEEFLAEGLRNENLSAVARDHRDHILRGFQQIKARYYWDFQPQGGDIGQDSSDDNHSGTLGLSLTSDAPFLSDYQDEGMEDIVKGAQELDNVIKQGYLEKKSKDHSFFGSEWQKRWCVVSRGLFYYYANEKSKQPKGTFLIKGYGVRMAPHLRRDSKKESCFELTSQDRRSYEFTATSPAEARDWVDQISFLLKDLSSLTIPYEEDEEEEEKEETYDDIDGFDSPSCGSQCRPTILPGSVGIKEPTEEKEEEDIYEVLPDEEHDLEEDESGTRRKGVDYASYYQGLWDCHGDQPDELSFQRGDLIRILSKEYNMYGWWVGELNSLVGIVPKEYLTTAFEVEER
# chain 2: MGCIKSKGKDSLSDDGVDLKTQPVRNTERTIYVRDPTSNKQQRPVPESQLLPGQRFQTKDPEEQGDIVVALYPYDGIHPDDLSFKKGEKMKVLEEHGEWWKAKSLLTKKEGFIPSNYVAKLNTLETEEWFFKDITRKDAERQLLAPGNSAGAFLIRESETLKGSFSLSVRDFDPVHGDVIKHYKIRSLDNGGYYISPRITFPCISDMIKHYQKQADGLCRRLEKACISPKPQKPWDKDAWEIPRESIKLVKRLGAGQFGEVWMGYYNNSTKVAVKTLKPGTMSVQAFLEEANLMKTLQHDKLVRLYAVVTREEPIYIITEYMAKGSLLDFLKSDEGGKVLLPKLIDFSAQIAEGMAYIERKNYIHRDLRAANVLVSESLMCKIADFGLARVIEDNEYTAREGAKFPIKWTAPEAINFGCFTIKSDVWSFGILLYEIVTYGKIPYPGRTNADVMTALSQGYRMPRVENCPDELYDIMKMCWKEKAEERPTFDYLQSVLDDFYTATEGQYQQQP
# B2: SRC kinase associated phosphoprotein 1 (SKAP1), wild type, N2-fused [human] / SRMS, N1-fused [not stated] (parent)
# chain 1: B1 chain 1
# chain 2: MEPFLRRRLAFLSFFWDKIWPAGGEPDHGTPGSLDPNTDPVPTLPAEPCSPFPQLFLALYDFTARCGGELSVRRGDRLCALEEGGGYIFARRLSGQPSAGLVPITHVAKASPETLSDQPWYFSGVSRTQAQQLLLSPPNEPGAFLIRPSESSLGGYSLSVRAQAKVCHYRVSMAADGSLYLQKGRLFPGLEELLTYYKANWKLIQNPLLQPCMPQKAPRQDVWERPHSEFALGRKLGEGYFGEVWEGLWLGSLPVAIKVIKSANMKLTDLAKEIQTLKGLRHERLIRLHAVCSGGEPVYIVTELMRKGNLQAFLGTPEGRALRLPPLLGFACQVAEGMSYLEEQRVVHRDLAARNVLVDDGLACKVADFGLARLLKDDIYSPSSSSKIPVKWTAPEAANYRVFSQKSDVWSFGVLLHEVFTYGQCPYEGMTNHETLQQIMRGYRLPRPAACPAEVYVLMLECWRSSPEERPSFATLREKLHAIHRCHP
# B3: SRC kinase associated phosphoprotein 1 (SKAP1), wild type, N2-fused [human] / FRK, N1-fused [not stated] (parent)
# chain 1: B1 chain 1
# chain 2: MSNICQRLWEYLEPYLPCLSTEADKSTVIENPGALCSPQSQRHGHYFVALFDYQARTAEDLSFRAGDKLQVLDTLHEGWWFARHLEKRRDGSSQQLQGYIPSNYVAEDRSLQAEPWFFGAIGRSDAEKQLLYSENKTGSFLIRESESQKGEFSLSVLDGAVVKHYRIKRLDEGGFFLTRRRIFSTLNEFVSHYTKTSDGLCVKLGKPCLKIQVPAPFDLSYKTVDQWEIDRNSIQLLKRLGSGQFGEVWEGLWNNTTPVAVKTLKPGSMDPNDFLREAQIMKNLRHPKLIQLYAVCTLEDPIYIITELMRHGSLQEYLQNDTGSKIHLTQQVDMAAQVASGMAYLESRNYIHRDLAARNVLVGEHNIYKVADFGLARVFKVDNEDIYESRHEIKLPVKWTAPEAIRSNKFSIKSDVWSFGILLYEIITYGKMPYSGMTGAQVIQMLAQNYRLPQPSNCPQQFYNIMLECWNAEPKERPTFETLRWKLEDYFETDSSYSDANNFIR
# Variants of: B1
# Test: luciferase complementation assay (normalized luciferase ratio, NLR)
# Settings: with LYN, HEK293T cells, one experiment, read off a plot
row,ratio to parent,Variant
1,1.4,chain 1 D120K
2,1.8,chain 1 W333K

# Variants of: B2
# Test: as above
# Settings: with SRMS, HEK293T cells, one experiment, read off a plot
row,ratio to parent,Variant
1,1.2,chain 1 W333K

# Variants of: B3
# Test: as above
# Settings: with FRK, HEK293T cells, one experiment, read off a plot
row,ratio to parent,Variant
1,1,chain 1 D120K
2,0.84,chain 1 W333K
